Results taken from US20180147232.

Target: Flag-TSC2 (UniProt P49815)
Sequence (P49815 whole entry): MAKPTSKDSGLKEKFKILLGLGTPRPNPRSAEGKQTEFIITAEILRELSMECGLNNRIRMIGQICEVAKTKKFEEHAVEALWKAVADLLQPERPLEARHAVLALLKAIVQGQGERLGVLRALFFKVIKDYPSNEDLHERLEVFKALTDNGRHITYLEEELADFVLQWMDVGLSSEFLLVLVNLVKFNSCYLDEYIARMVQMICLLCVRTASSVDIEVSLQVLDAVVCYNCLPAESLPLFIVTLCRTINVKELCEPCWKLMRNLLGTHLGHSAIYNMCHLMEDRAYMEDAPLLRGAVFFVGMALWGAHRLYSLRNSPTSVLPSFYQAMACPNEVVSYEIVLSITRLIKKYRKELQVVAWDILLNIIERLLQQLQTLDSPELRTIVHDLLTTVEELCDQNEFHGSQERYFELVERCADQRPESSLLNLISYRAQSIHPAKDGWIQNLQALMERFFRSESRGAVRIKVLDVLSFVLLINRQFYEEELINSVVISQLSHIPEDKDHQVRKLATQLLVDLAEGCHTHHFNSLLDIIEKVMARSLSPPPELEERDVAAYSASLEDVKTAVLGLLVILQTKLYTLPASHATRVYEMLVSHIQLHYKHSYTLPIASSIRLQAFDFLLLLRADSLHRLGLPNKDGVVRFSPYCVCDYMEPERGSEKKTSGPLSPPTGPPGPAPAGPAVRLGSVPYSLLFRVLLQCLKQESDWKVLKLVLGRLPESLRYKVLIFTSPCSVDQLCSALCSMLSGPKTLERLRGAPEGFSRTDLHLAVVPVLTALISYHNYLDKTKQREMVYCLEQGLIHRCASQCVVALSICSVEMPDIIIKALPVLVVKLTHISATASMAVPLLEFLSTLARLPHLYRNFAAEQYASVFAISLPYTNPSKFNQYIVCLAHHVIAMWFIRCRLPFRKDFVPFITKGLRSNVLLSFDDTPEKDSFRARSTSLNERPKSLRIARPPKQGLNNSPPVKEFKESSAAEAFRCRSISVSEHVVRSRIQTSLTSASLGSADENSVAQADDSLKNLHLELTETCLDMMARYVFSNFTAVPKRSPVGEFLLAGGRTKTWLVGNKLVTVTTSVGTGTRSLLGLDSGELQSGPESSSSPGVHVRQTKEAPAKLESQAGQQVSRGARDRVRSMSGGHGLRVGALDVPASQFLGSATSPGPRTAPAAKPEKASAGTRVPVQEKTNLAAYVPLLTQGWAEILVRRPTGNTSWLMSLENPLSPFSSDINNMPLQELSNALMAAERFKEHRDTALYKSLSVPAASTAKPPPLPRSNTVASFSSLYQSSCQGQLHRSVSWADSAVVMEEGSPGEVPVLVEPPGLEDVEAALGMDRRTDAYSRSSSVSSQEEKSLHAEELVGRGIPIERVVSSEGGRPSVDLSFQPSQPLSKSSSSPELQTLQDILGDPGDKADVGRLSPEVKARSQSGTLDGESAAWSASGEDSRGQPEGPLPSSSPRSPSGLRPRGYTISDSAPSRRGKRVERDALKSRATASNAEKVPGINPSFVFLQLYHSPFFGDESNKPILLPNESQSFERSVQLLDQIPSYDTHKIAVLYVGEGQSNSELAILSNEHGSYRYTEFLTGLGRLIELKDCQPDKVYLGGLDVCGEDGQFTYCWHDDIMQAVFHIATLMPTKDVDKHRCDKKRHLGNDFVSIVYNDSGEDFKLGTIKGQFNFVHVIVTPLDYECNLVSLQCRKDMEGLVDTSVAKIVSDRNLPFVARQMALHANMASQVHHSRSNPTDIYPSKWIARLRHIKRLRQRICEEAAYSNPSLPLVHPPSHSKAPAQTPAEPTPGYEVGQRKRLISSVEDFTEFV

In the case of HA-SGK1, the “phosphorylation of RXRXX(S/T) motifs on co-expression” value is reported as “co-expression of SGK1 with TSC2 increased the phosphorylation of RXRXX(S/T) (SEQ ID NO: 1) motifs”.
